From patent US7838288B2, “Modulators of odorant receptors” (Duke University, priority 2004, dated 2010)

T1: mouse odorant receptor OREG (Mus musculus, UniProt Q920P2)
T1 construct: expressed in transfected cells; host or cells: 293T cells (with or without co-transfected REEP1/RTP1/RTP2) and Hana3A cells (293T stably expressing mouse REEP1, RTP1, RTP2, Galpha-olf)
T1 sequence (Q920P2 1-313): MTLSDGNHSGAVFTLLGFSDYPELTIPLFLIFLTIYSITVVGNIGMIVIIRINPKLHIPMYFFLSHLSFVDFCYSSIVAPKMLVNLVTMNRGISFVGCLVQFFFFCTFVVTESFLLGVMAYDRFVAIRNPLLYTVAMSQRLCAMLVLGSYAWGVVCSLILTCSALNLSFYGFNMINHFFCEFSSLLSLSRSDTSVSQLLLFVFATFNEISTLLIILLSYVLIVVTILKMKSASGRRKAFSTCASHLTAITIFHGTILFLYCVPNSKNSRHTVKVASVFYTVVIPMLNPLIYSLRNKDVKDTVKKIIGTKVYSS

B1: REEP1: Receptor Expression Enhancing Protein 1; murine SEQ ID NO: 21, human SEQ ID NO: 27 (protein, listed as Mus musculus)
chain: MVSWIISRLVVLIFGTLYPAYYSYKAVKSKDIKEYVKWMMYWIIFALFTTAETFTDIFLCWFPFYYELKIAFVAWLLSPYTKGSSLLYRKFVHPTLSSKEKEIDDCLVQAKDRSYDALVHFGKRGLNVAATAAVMAASKGQGALSERLRSFSMQDLTTIRGDGAPAPSGPPPPGTGRSSGKHSQPKMSRSASESAGSSGTA
B2: RTP1: Receptor Transporting Protein 1; murine SEQ ID NO: 33, human SEQ ID NO: 37 (protein, listed as Mus musculus)
chain: MRIFRPWRLRCPALHLPSFPTFSIKCSLPPLPTDEDMCKSVTTGEWKKVFYEKMEEVKPADSWDFIIDPNLKHNVLAPGWKQYLELHASGRFHCSWCWHTWQSPHVVILFHMYLDKAQRAGSVRMRVFKQLCYECGTARLDESSMLEENIESLVDNLITSLREQCYGERGGHYRIHVASRQDNRRHRGEFCEACQEGIVHWKPSEKLLEEEATTYTFSRAPSPTKPQAETGSGCNFCSIPWCLFWATVLMLIIYLQFSFRTSV

Tests used:
[1] = system: MOR203-1; assay: Co-immunoprecipitation with HA-tagged MOR203-1; type: binding, mouse; details: Flag-tagged protein, 293T cells, HA-MOR203-1 precipitated
Description: Given the ability of REEP and/or RTP to promote cell-surface expression of ORs, it was hypothesized that they may also interact with OR proteins. This was assessed using co-immunoprecipitation assays. HA-tagged MOR203-1 and Flag-tagged REEP1, RTP1 or ICAP-1, a negative control (see, e.g., Zawistowski, J. S., et al. (2002) Hum Mol Genet. 11, 389-396; herein incorporated by reference in its entirety) were transfected in 293T cells. After the cell extracts were precipitated with anti-Flag antibodies, proteins were eluted in SDS-sample buffer at room temperature whereupon western blotting analysis was performed to detect the OR proteins. OR proteins were detected as high molecular weight bands after precipitation of REEP1 or RTP1 (see FIG. 7B, lanes 1 and 2). […] The present invention is not limited to a particular mechanism. Indeed, an understanding of the mechanism is not necessary to practice the present invention.
293T cells in 100 mm dishes were transfected with ORs, REEP1, and/or RTP1 cDNAs. 16 hours after transfection, cells were lysed in lysis buffer (50 mM Tris (7.4), 150 mM NaCl, 1% NP-40, 0.5 mM PMSF, 2 mM Benzamidene, 0.5 ug/ml Leupeptin, 1.4 ug/ml pepstatin A, 2.4 ug/ml chymostatin, 15 ug/ml aprotinin, 1 mM sodium orthovanadate). The lysis were incubated with anti-Flag M2 affinity gel (Sigma) or anti-HA affinity matrix (Roche) for 2 hours at 4 degrees C. and washed with lysis buffer. Subsequently, the bound proteins were eluted by incubation with SDS sample buffer at room temperature for 2 hours. SDS-PAGE and western blotting were performed according to Mini-Protean 3 Cell (Bio-Rad) instruction manual. ECL (Amersham) was used for detecting proteins on membranes.

[2] = molecular target: T1, mouse odorant receptor OREG; assay: CRE-luciferase reporter gene assay, OREG; type: cell-based; details: 293T cells; compared to OR alone or control pCI
Excerpt: Poor odorant evoked signaling activity in heterologous cell culture systems expressing ORs has been attributed to the poor cell surface expression of ORs. The identification of REEP and/or RTP allowed a direct assessment of this issue. A luciferase reporter gene assay was employed in which a cAMP responsive element (CRE) mediated luciferase gene expression (see FIG. 8A). Because OR activation leads to an increase in cAMP, activation of the mouse odorant receptor OREG by its ligand eugenol was measured in the presence and absence of REEP and/or RTP (see, e.g., Kajiya, K., et al. (2001) J Neurosci 21, 6018-6025; Touhara, K., et al., (1999) Proc Natl Acad Sci USA 96, 4040-4045; each herein incorporated by reference in their entireties). As reported previously, eugenol increased levels of OREG dependent luciferase activity (see, e.g., Katada, S., et al. (2003) Biochem Biophys Res Commun 305, 964-969; herein incorporated by reference in its entirety).
To facilitate analysis of odorant-OR interactions, 293T cell lines were established which stably express REEP1, RTP1, RTP2 and Gαolf, the G protein alpha subunit that couples to OR (see, e.g., Belluscio, L., et al. (1998) Neuron 20, 69-81; Jones, D. T., and Reed, R. R. (1989). Science 244, 790-795; each herein incorporated by reference in their entireties). To establish such cells, linearized expression vectors containing mouse REEP1, RTP1, RTP2 and Gαolf ORFs were transfected into 293T cells with PGK-Pac (puromycin resistant gene) (see, e.g., Watanabe, S., et al. (1995) Biochem Biophys Res Commun 213, 130-137; herein incorporated by reference in its entirety). […] Enhanced cell-surface expression was observed when OREG or other ORs were transfected in Hana3A cells and immunostained (see FIG. 10). […] Expression of Gαolf alone in 293T cells had little or no effect on OR activation using this assay.
Dual-Glo system (Promega) for luciferase assay was used. CRE-Luciferase (Stratagene) was used to measure the receptor activities. Renilla luciferase driven by constitutively active SV40 promoter (pRL-SV40: Promega) was used as an internal control. Cells were plated on poly-D-lysine coated 96 well plates (BIOCOAT, Beckton Dickinson). After 8 hours (for experiments shown in FIGS. 8B and 8C) or 12 hours (for experiments shown in FIG. 8D and FIG. 11) after transfection, the medium was replaced with CD293 chemically defined medium (Invitrogen) and the plates were incubated for one hour at 37 degrees C. The medium was replaced with 50 ul of odorant solutions dissolved in CD293 and incubated for 10 hours (for experiments shown in FIGS. 8B and 8C) or 4 hours (for experiments shown in FIG. 8D and FIG. 11) at 37 degrees C. The manufacture's protocol for measuring luciferase and Renilla luciferase activities was followed. Luminescence was measured using Wallac Victor 1420 (Perkin-Elmer). Normalized luciferase activity was calculated as [Luc (N)-Luc (0)]/RL (N), where Luc (N)=Luminescent count of a certain well, Luc (0)=Luminescent count without odorant for each OR, and RL (N)=Luminescent count of Renilla Luciferase of each well. For cAMP assays, cells were plated onto 24-well plate. […]. Prism software (Graphpad) was used for data analysis.

[3] = system: MOR203-1; assay: Living-cell staining of cell-surface MOR203-1; type: cell-based, mouse; details: accessory protein co-transfected in 293T cells
Excerpt: After hypothesizing that mammalian ORs require accessory protein(s) for functional cell surface expression, a search was instituted for detecting such molecule(s). Long-SAGE (serial analysis of gene expression) libraries (see, e.g., Saha, S., et al., (2002) Nat Biotechnol 20, 508-512; herein incorporated by reference in its entirety) were constructed from single olfactory neurons as well as neurons from the vomeronasal organ and genes were collected that are expressed by these neurons. To identify candidate genes expressed by the olfactory neurons Digital Differential Display (see, e.g., http://www, followed by, .ncbi.nlm.nih.gov/UniGene/info_ddd.shtml) was also used. Candidate genes were investigated for ORFs that encode membrane associated proteins. Genes were selected with similarities to known chaperones and cloned the cDNAs from olfactory epithelium cDNAs. The mRNA expression of each gene was verified by in situ hybridization. After isolating and subcloning into mammalian expression vectors, each cDNA together with a mouse OR (MOR203-1) tagged with a 20 N-terminal amino acids of rhodopsin (Rho-tag), was transfected into 293T cells. We measured whether these clones had any effect on the cell-surface expression of ORs by staining living cells using antibodies against the Rho-tag (see, e.g., Laird, D. W., and Molday, R. S. (1988) Invest Opthalmol Vis Sci 29, 419-428; herein incorporated by reference in its entirety). When MOR203-1 was transfected alone, antibody staining detected only faint cell-surface expression in less than 1% of the cells. A schematic diagram outlining the screening procedure utilized with the present invention is provided at FIG. 1.
293T cells were maintained in minimal essential medium containing 10% fetal bovine serum (M10). Lipofectamine 2000 (Invitrogen) was used for transfection. In live-cell staining, 16 hours after transfection, cells were incubated in M10 containing anti rhodopsin antibody, 4D2 (see, e.g., Laird, D. W., and Molday, R. S. (1988) Invest Opthalmol V is Sci 29, 419-428; herein incorporated by reference in its entirety) and 15 mM NaN3 at 4 degrees C. for 1 hour. After washing, cells were incubated with Cy3-conjugated anti mouse IgG (Jackson Immunologicals), washed and mounted. For FACS analysis, 4D2 and PE-conjugated anti mouse IgG (Jackson Immunologicals) were used to monitor the Rho tagged receptor expression. Anti HA rabbit antibodies (Sigma) and Alexa 488 conjugated anti rabbit IgG (Molecular Probes) was used to stain the HA-β2 adrenergic receptor. To establish the Hana3a cells, 1 ug/ml of puromycin was used for selection. 96 colonies were picked and assayed using luciferase assay using OREG.

Row | Molecule | co-precipitation with HA-MOR203-1 [1] | OREG activity by luciferase, accessory protein co-expressed [2] | cell surface expression of MOR203-1 [3]
1 | B1 | co-precipitated | enhanced luciferase activities compared to OR alone | enhanced both the number and staining intensity of cell surface expression
2 | B2 | co-precipitated | enhanced luciferase activities compared to OR alone | enhanced both the number and staining intensity of cell surface expression
